Laboratory results as given in paper PMC4537179.

Assays:
Assay in all cases: SPR
Max(L) = Max(L) (UniProt P61244 1-160)
Max(S) = Max(S) (UniProt P61244-2 1-151)
c-Myc bHLH-ZIP = c-Myc bHLH-ZIP (Homo sapiens (human), UniProt P01106-1 353-437)
Chain of c-Myc bHLH-ZIP (P01106 368-452): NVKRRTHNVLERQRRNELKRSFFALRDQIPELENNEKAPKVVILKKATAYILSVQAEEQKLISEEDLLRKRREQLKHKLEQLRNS

B1: biotinylated E-box oligonucleotide (dsDNA)
DNA 1: TGAAGCAGACCACGTGGTCGTCTTCA
DNA 2: TGAAGACGACCACGTGGTCTGCTTCA
Max(L)
  binding result: binds
Max(S)
  binding result: no binding
c-Myc bHLH-ZIP
  binding result: no binding
